Experimental data taken from paper PMC5138130 (Journal of molecular biology, 2016).
Where “and” joins values, the source holds several entries; their conditions need not be identical. Equal values may be shown once. Blank lines part the entries; values can stand above or below the molecule they belong to.

Legend:
[1] = target: Bni5(1–313) used for FFF-MALS (S. cerevisiae) (UniProt P53890); assay: field-flow fractionation with multi-angle light scattering
[2] = target: Otherwise Cys-less septin hetero-octamers capped with Cdc11(Δα0) E294C labeled with AF555 (S. cerevisiae) (UniProt P32458); assay: FRET or BRET
[3] = target: T1, (His)8-3C protease cleavage site-Bni5 fusion (wild-type Bni5) (S. cerevisiae), P53890; assay: field-flow fractionation with multi-angle light scattering; conditions: remark: other sources report otherwise
T1 chain: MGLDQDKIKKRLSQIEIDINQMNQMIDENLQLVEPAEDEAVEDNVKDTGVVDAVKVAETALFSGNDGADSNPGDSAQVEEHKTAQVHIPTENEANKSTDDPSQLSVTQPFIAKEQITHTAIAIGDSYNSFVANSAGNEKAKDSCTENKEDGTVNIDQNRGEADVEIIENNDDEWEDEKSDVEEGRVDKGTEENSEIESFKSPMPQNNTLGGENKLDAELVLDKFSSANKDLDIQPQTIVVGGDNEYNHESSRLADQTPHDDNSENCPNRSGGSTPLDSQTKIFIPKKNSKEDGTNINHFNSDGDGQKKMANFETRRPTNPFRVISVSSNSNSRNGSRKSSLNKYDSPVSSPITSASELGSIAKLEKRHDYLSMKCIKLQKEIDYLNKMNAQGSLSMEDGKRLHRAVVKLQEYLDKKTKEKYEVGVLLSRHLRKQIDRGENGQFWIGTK

[4] = target: T1, (His)8-3C protease cleavage site-Bni5 …; assay: AUC; conditions: remark: other sources report otherwise
[5] = target: T2, (His)8-3C protease cleavage site-Bni5 fusion (wild-type Bni5) (S. cerevisiae, UniProt P53890 1-448); assay: negative-stain electron microscopy with 2D class averages
T2 sequence (looked up): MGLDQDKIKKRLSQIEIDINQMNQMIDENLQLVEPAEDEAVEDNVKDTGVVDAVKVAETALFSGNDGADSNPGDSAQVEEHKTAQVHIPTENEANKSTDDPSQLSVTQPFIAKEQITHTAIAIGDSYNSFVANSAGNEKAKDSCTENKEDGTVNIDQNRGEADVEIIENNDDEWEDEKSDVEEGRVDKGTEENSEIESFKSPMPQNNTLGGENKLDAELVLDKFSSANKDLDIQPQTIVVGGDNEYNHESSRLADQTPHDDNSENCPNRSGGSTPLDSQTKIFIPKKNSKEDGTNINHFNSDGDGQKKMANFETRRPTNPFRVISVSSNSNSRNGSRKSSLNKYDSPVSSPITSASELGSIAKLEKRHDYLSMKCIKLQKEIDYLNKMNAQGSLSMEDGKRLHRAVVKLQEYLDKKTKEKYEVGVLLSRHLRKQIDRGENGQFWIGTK

[6] = target: the molecule itself; assay: as above

Kd [2]: 154 nM
B1: Bni5(C144R C266F) labeled with AF647 at C375 (natural protein)
chain: MGLDQDKIKKRLSQIEIDINQMNQMIDENLQLVEPAEDEAVEDNVKDTGVVDAVKVAETALFSGNDGADSNPGDSAQVEEHKTAQVHIPTENEANKSTDDPSQLSVTQPFIAKEQITHTAIAIGDSYNSFVANSAGNEKAKDSRTENKEDGTVNIDQNRGEADVEIIENNDDEWEDEKSDVEEGRVDKGTEENSEIESFKSPMPQNNTLGGENKLDAELVLDKFSSANKDLDIQPQTIVVGGDNEYNHESSRLADQTPHDDNSENFPNRSGGSTPLDSQTKIFIPKKNSKEDGTNINHFNSDGDGQKKMANFETRRPTNPFRVISVSSNSNSRNGSRKSSLNKYDSPVSSPITSASELGSIAKLEKRHDYLSMKCIKLQKEIDYLNKMNAQGSLSMEDGKRLHRAVVKLQEYLDKKTKEKYEVGVLLSRHLRKQIDRGENGQFWIGTK
modifications: AF647 (Alexa Fluor 647 maleimide) on C375

EC50 [2]: 614 nM
B3: Bni5(314–448) C375 labeled with AF647 (domain or fragment)
chain: TRRPTNPFRVISVSSNSNSRNGSRKSSLNKYDSPVSSPITSASELGSIAKLEKRHDYLSMKCIKLQKEIDYLNKMNAQGSLSMEDGKRLHRAVVKLQEYLDKKTKEKYEVGVLLSRHLRKQIDRGENGQFWIGTK
modifications: AF647 (Alexa Fluor 647 maleimide) on C375

binding result [5]: binds
B4: Cdc11 (wild type), terminal subunit of the septin hetero-octamer (natural protein, S. cerevisiae, UniProt P32458 1-415, looked up)
chain: MSGIIDASSALRKRKHLKRGITFTVMIVGQSGSGRSTFINTLCGQQVVDTSTTILLPTDTSTEIDLQLREETVELEDDEGVKIQLNIIDTPGFGDSLDNSPSFEIISDYIRHQYDEILLEESRVRRNPRFKDGRVHCCLYLINPTGHGLKEIDVEFIRQLGSLVNIIPVISKSDSLTRDELKLNKKLIMEDIDRWNLPIYNFPFDEDEISDEDYETNMYLRTLLPFAIIGSNEVYEMGGDVGTIRGRKYPWGILDVEDSSISDFVILRNALLISHLHDLKNYTHEILYERYRTEALSGESVAAESIRPNLTKLNGSSSSSTTTRRNTNPFKQSNNINNDVLNPASDMHGQSTGENNETYMTREEQIRLEEERLKAFEERVQQELLLKRQELLQREKELREIEARLEKEAKIKQEE

Continued, molecule first:

Molecule: Bni5(1–313) used for FFF-MALS (from UniProt P53890 1-313) (domain or fragment)
stoichiometry N [1]: 2 and 4

B2: (His)8-3C protease cleavage site-Bni5 fusion (wild-type Bni5), P53890 1-448 (natural protein)
chain: MGLDQDKIKKRLSQIEIDINQMNQMIDENLQLVEPAEDEAVEDNVKDTGVVDAVKVAETALFSGNDGADSNPGDSAQVEEHKTAQVHIPTENEANKSTDDPSQLSVTQPFIAKEQITHTAIAIGDSYNSFVANSAGNEKAKDSCTENKEDGTVNIDQNRGEADVEIIENNDDEWEDEKSDVEEGRVDKGTEENSEIESFKSPMPQNNTLGGENKLDAELVLDKFSSANKDLDIQPQTIVVGGDNEYNHESSRLADQTPHDDNSENCPNRSGGSTPLDSQTKIFIPKKNSKEDGTNINHFNSDGDGQKKMANFETRRPTNPFRVISVSSNSNSRNGSRKSSLNKYDSPVSSPITSASELGSIAKLEKRHDYLSMKCIKLQKEIDYLNKMNAQGSLSMEDGKRLHRAVVKLQEYLDKKTKEKYEVGVLLSRHLRKQIDRGENGQFWIGTK
stoichiometry N [3]: 2 and 4
stoichiometry N [4]: 2

B5: Cdc11-capped septin hetero-octamers containing Cdc10-GFP as the sole source of Cdc10 (complex, S. cerevisiae)
chain 1: MSGIIDASSALRKRKHLKRGITFTVMIVGQSGSGRSTFINTLCGQQVVDTSTTILLPTDTSTEIDLQLREETVELEDDEGVKIQLNIIDTPGFGDSLDNSPSFEIISDYIRHQYDEILLEESRVRRNPRFKDGRVHCCLYLINPTGHGLKEIDVEFIRQLGSLVNIIPVISKSDSLTRDELKLNKKLIMEDIDRWNLPIYNFPFDEDEISDEDYETNMYLRTLLPFAIIGSNEVYEMGGDVGTIRGRKYPWGILDVEDSSISDFVILRNALLISHLHDLKNYTHEILYERYRTEALSGESVAAESIRPNLTKLNGSSSSSTTTRRNTNPFKQSNNINNDVLNPASDMHGQSTGENNETYMTREEQIRLEEERLKAFEERVQQELLLKRQELLQREKELREIEARLEKEAKIKQEE
chain 2: MSAATATAAPVPPPVGISNLPNQRYKIVNEEGGTFTVMLCGESGLGKTTFINTLFQTVLKRADGQQHRQEPIRKTVEIDITRALLEEKHFELRVNVIDTPGFGDNVNNNKAWQPLVDFIDDQHDSYMRQEQQPYRTKKFDLRVHAVLYFIRPTGHGLKPIDIETMKRLSTRANLIPVIAKADTLTAQELQQFKSRIRQVIEAQEIRIFTPPLDADSKEDAKSGSNPDSAAVEHARQLIEAMPFAIVGSEKKFDNGQGTQVVARKYPWGLVEIENDSHCDFRKLRALLLRTYLLDLISTTQEMHYETYRRLRLEGHENTGEGNEDFTLPAIAPARKLSHNPRYKEEENALKKYFTDQVKAEEQRFRQWEQNIVNERIRLNGDLEEIQGKVKKLEEQVKSLQVKKSHLK
chain 3: MSLKEEQVSIKQDPEQEERQHDQFNDVQIKQESQDHDGVDSQYTNGTQNDDSERFEAAESDVKVEPGLGMGITSSQSEKGQVLPDQPEIKFIRRQINGYVGFANLPKQWHRRSIKNGFSFNLLCVGPDGIGKTTLMKTLFNNDDIEANLVKDYEEELANDQEEEEGQGEGHENQSQEQRHKVKIKSYESVIEENGVKLNLNVIDTEGFGDFLNNDQKSWDPIIKEIDSRFDQYLDAENKINRHSINDKRIHACLYFIEPTGHYLKPLDLKFMQSVYEKCNLIPVIAKSDILTDEEILSFKKTIMNQLIQSNIELFKPPIYSNDDAENSHLSERLFSSLPYAVIGSNDIVENYSGNQVRGRSYPWGVIEVDNDNHSDFNLLKNLLIKQFMEELKERTSKILYENYRSSKLAKLGIKQDNSVFKEFDPISKQQEEKTLHEAKLAKLEIEMKTVFQQKVSEKEKKLQKSETELFARHKEMKEKLTKQLKALEDKKKQLELSINSASPNVNHSPVPTKKKGFLR
chain 4: MDPLSSVQPASYVGFDTITNQIEHRLLKKGFQFNIMVVGQSGLGKSTLINTLFASHLIDSATGDDISALPVTKTTEMKISTHTLVEDRVRLNINVIDTPGFGDFIDNSKAWEPIVKYIKEQHSQYLRKELTAQRERFITDTRVHAILYFLQPNGKELSRLDVEALKRLTEIANVIPVIGKSDTLTLDERTEFRELIQNEFEKYNFKIYPYDSEELTDEELELNRSVRSIIPFAVVGSENEIEINGETFRGRKTRWSAINVEDINQCDFVYLREFLIRTHLQDLIETTSYIHYEGFRARQLIALKENANSRSSAHMSSNAIQR
binding result [6]: binds

B6: Wild-type Cdc11-capped septin hetero-octamers (Cdc11-Cdc12-Cdc3-Cdc10-Cdc10-Cdc3-Cdc12-Cdc11) used for EM (complex, S. cerevisiae)
chain 1: MSGIIDASSALRKRKHLKRGITFTVMIVGQSGSGRSTFINTLCGQQVVDTSTTILLPTDTSTEIDLQLREETVELEDDEGVKIQLNIIDTPGFGDSLDNSPSFEIISDYIRHQYDEILLEESRVRRNPRFKDGRVHCCLYLINPTGHGLKEIDVEFIRQLGSLVNIIPVISKSDSLTRDELKLNKKLIMEDIDRWNLPIYNFPFDEDEISDEDYETNMYLRTLLPFAIIGSNEVYEMGGDVGTIRGRKYPWGILDVEDSSISDFVILRNALLISHLHDLKNYTHEILYERYRTEALSGESVAAESIRPNLTKLNGSSSSSTTTRRNTNPFKQSNNINNDVLNPASDMHGQSTGENNETYMTREEQIRLEEERLKAFEERVQQELLLKRQELLQREKELREIEARLEKEAKIKQEE
chain 2: MSAATATAAPVPPPVGISNLPNQRYKIVNEEGGTFTVMLCGESGLGKTTFINTLFQTVLKRADGQQHRQEPIRKTVEIDITRALLEEKHFELRVNVIDTPGFGDNVNNNKAWQPLVDFIDDQHDSYMRQEQQPYRTKKFDLRVHAVLYFIRPTGHGLKPIDIETMKRLSTRANLIPVIAKADTLTAQELQQFKSRIRQVIEAQEIRIFTPPLDADSKEDAKSGSNPDSAAVEHARQLIEAMPFAIVGSEKKFDNGQGTQVVARKYPWGLVEIENDSHCDFRKLRALLLRTYLLDLISTTQEMHYETYRRLRLEGHENTGEGNEDFTLPAIAPARKLSHNPRYKEEENALKKYFTDQVKAEEQRFRQWEQNIVNERIRLNGDLEEIQGKVKKLEEQVKSLQVKKSHLK
chain 3: MSLKEEQVSIKQDPEQEERQHDQFNDVQIKQESQDHDGVDSQYTNGTQNDDSERFEAAESDVKVEPGLGMGITSSQSEKGQVLPDQPEIKFIRRQINGYVGFANLPKQWHRRSIKNGFSFNLLCVGPDGIGKTTLMKTLFNNDDIEANLVKDYEEELANDQEEEEGQGEGHENQSQEQRHKVKIKSYESVIEENGVKLNLNVIDTEGFGDFLNNDQKSWDPIIKEIDSRFDQYLDAENKINRHSINDKRIHACLYFIEPTGHYLKPLDLKFMQSVYEKCNLIPVIAKSDILTDEEILSFKKTIMNQLIQSNIELFKPPIYSNDDAENSHLSERLFSSLPYAVIGSNDIVENYSGNQVRGRSYPWGVIEVDNDNHSDFNLLKNLLIKQFMEELKERTSKILYENYRSSKLAKLGIKQDNSVFKEFDPISKQQEEKTLHEAKLAKLEIEMKTVFQQKVSEKEKKLQKSETELFARHKEMKEKLTKQLKALEDKKKQLELSINSASPNVNHSPVPTKKKGFLR
chain 4: MDPLSSVQPASYVGFDTITNQIEHRLLKKGFQFNIMVVGQSGLGKSTLINTLFASHLIDSATGDDISALPVTKTTEMKISTHTLVEDRVRLNINVIDTPGFGDFIDNSKAWEPIVKYIKEQHSQYLRKELTAQRERFITDTRVHAILYFLQPNGKELSRLDVEALKRLTEIANVIPVIGKSDTLTLDERTEFRELIQNEFEKYNFKIYPYDSEELTDEELELNRSVRSIIPFAVVGSENEIEINGETFRGRKTRWSAINVEDINQCDFVYLREFLIRTHLQDLIETTSYIHYEGFRARQLIALKENANSRSSAHMSSNAIQR
binding result [6]: binds
